# Data reported in patent US20160208233A1 (Harvard, published 2016).
# Residue numbers refer to the chain shown, from its start. Names may count otherwise.
# T1: Gly-Gly-Gly-COOH
# T1 chain: GGG
# T2: Abz-LPETGK(Dnp)-CONH2
# T2 chain: LPETGK
# T3: Abz-LAETGK(Dnp)-CONH2
# T3 chain: LAETGK
# T4: Abz-LPESGK(Dnp)-CONH2
# T4 chain: LPESGK
# B1: eSrtA(4S-5) (protein)
# chain: QAKPQIPKDKSKVAGYIEIPDADIKEPVYPGPATREQLDRGVSFVEENESLDDQNISITGHTAIDRPNYQFTNLRAAKKGSMVYFKVGNETRKYKMTSIRNVKPTAVEVLDEQKGKDKQLTLVTCDDYNEETGVWETRKIFVATEVK
# B2: eSrtA(4S-6) (protein)
# chain: B1 chain with T59S, R75G, E130V
# B3: 4S.6B (protein)
# chain: B1 chain with T59S, R75P, E130P
# B4: 4S.6C (protein)
# chain: B1 chain with E130F
# B5: wild-type S. aureus sortase A (protein)
# chain: QAKPQIPKDKSKVAGYIEIPDADIKEPVYPGPATPEQLNRGVSFAEENESLDDQNISIAGHTFIDRPNYQFTNLKAAKKGSMVYFKVGNETRKYKMTSIRDVKPTDVEVLDEQKGKDKQLTLITCDDYNEKTGVWEKRKIFVATEVK
# B6: eSrtA(2A-6) (protein)
# chain: B1 chain with D39N, V45H, T59A, A63F, R75K, K79V, K103R
# B7: 2A.6B (protein)
# chain: B1 chain with D39N, R40K, V45H, T59A, A63F, R75K, K79V, N101K, K103R
# B8: eSrtA(2A-3) (protein)
# chain: QAKPQIPKDKSKVAGYIEIPDADIREPVYPGPATREQLNRGVSFAEENESLDDQNISIAGHTSIGRPNYQFTNLRAAKKGSMVYFEVGNETRKYKMTSIRNVRPTAVEILDEQKGKDRQLTLFTCDDYNEETGVWETRKIFVATEVK
# B9: eSrtA(4S-3) (protein)
# chain: B1 chain with D39S, V45T, A63S, D65G, K114E, K118E
# B10: eSrtA(4S-4) (protein)
# chain: B1 chain with D39N, A63S, R75K
# B11: eSrtA(2A-4) (protein)
# chain: B1 chain with D39N, V45H, T59A, A63F, R75K, K103R, V109I
# B12: eSrtA(4S-3.5) (protein)
# chain: B1 chain with D39N, V45T, A63F, R75K
# B13: eSrtA(2A-9) H104A (protein)
# chain: QAKPQIPKDKSKVAGYIEIPDADIKEPVYPGPATREQLNRGVCFADENESLDDQNISIAGHTFIDRPNYQFTNLKAAKPGSMVYFKVGNETRIYKMTSIRKVHPNAVEVLDEQEGKDKQLTLVTCDDYNEETGVWESRKIFVATEVK
# B14: eSrtA(2A-9) V182I (protein)
# chain: B13 chain with A45H, V123I
# B15: eSrtA(4S-9) V104A (protein)
# chain: B1 chain with S43C, V45A, F85L, E130F
# B16: eSrtA(4S-9) V182I (protein)
# chain: B1 chain with S43C, F85L, V123I, E130F
# B17: eSrtA(4S-9) T118A (protein)
# chain: B1 chain with S43C, T59A, F85L, E130F
# Molecular target: T1, Gly-Gly-Gly-COOH
Protein,"Km,GGG (uM); with LPESG peptide [µM]",Avg KM (uM) for GGG; with LPESG (4S) peptide [µM],Avg kcat/KM for GGG; with LPESG (4S) peptide,"Km, GGG (uM); with LPETG peptide [µM]","Km,GGG (µM); listed substrate LPETG [µM]",Avg KM (uM) for GGG; with LAETG (2A) peptide [µM],Avg kcat/KM for GGG; with LAETG (2A) peptide,"Km, GGG (uM); with LAETG peptide [µM]"
B1,26700,–,–,–,–,–,–,–
B2,4950,13100,153,–,–,–,–,–
B3,15700,–,–,–,–,–,–,–
B4,36000,–,–,–,–,–,–,–
B5,–,–,–,291,211,–,–,–
B6,–,–,–,–,–,1110,1610,1040
B7,–,–,–,–,–,–,–,642

# Molecular target: T2, Abz-LPETGK(Dnp)-CONH2
Protein,Avg KM [µM],Avg kcat/KM,"Specificity (relative catalytic efficiency, fold), LPETG over LAETG [fold]","Km, LxExG [µM]",kcat/Km (Hz/M),Km [µM],kcat/Km [M⁻¹ s⁻¹],preference for LPETG over LAETG (kcat/Km)
B8,2100,1270,1.44,–,–,–,–,–
B9,3390,3.12,–,–,–,–,–,–
B1,11.7,530,–,12.2,513,–,–,–
B2,1040,930,–,1290,854,–,–,–
B3,–,–,–,238,4550,–,–,–
B4,–,–,–,16.1,235,–,–,–
B5,–,–,–,5180,236,7600,200,–
B6,3400,47.7,–,3290,47.8,–,–,–
B10,491,219,–,339,283,–,–,–
B11,5180,9.69,–,11700,8.01,–,–,–
B12,39300,133,–,–,–,–,–,–
B13,–,–,–,–,–,–,–,resulting in a 60-fold preference for LPETG (SEQ ID NO: 4) over LAETG (SEQ ID NO: 5)

# Molecular target: T3, Abz-LAETGK(Dnp)-CONH2
Protein,Avg KM [µM],Avg kcat/KM,"Km, LxExG [µM]","Specificity (relative catalytic efficiency, fold), LAETG over LPETG [fold]",kcat/Km (Hz/M),"specificity (relative cat. Efficiency, fold), LAETG over LPETG [fold]","increase in kcat/Km, LAETG substrate against LPETG substrate",preference for LAETG over LPETG (kcat/Km)
B8,1620,881,–,–,–,–,–,–
B6,665,3930,608,82.4,4130,86.4,–,–
B11,3720,534,3250,55.1,585,73,from ˜40-fold (2Ar4) to ˜125-fold (2Ar5) increase in kcat/Km,–
B7,–,–,310,–,2270,–,–,–
B14,–,–,–,–,–,–,–,"lowers the activity level for LAETG (SEQ ID NO: 5), but maintains an 85-fold preference for LAETG (SEQ ID NO: 5) over LPETG (SEQ ID NO: 4)"

# Molecular target: T4, Abz-LPESGK(Dnp)-CONH2
Protein,Avg KM [µM],Avg kcat/KM,"Specificity, LPESG over LPETG [fold]","Km, LxExG [µM]","increase in kcat/Km, LPESG substrate against LPETG substrate",increased affinity for the LPESG substrate as compared to the LPETG substrate,kcat/Km (Hz/M),"specificity (relative cat. Efficiency, fold), LPESG over LPETG [fold]",lowering of specificity for LPESG over LPETG against eSrtA(4S-9),activity and selectivity on LPESG and LPETG (kcat/Km)
B9,3330,763,245,–,–,–,–,–,–,–
B1,76,5130,9.67,76,from ˜2-fold (4Sr5) to ˜5-fold (4Sr6a) increase in kcat/Km,from ˜2-fold (4Sr6b) to ˜8-fold (4Sr5),5130,10,–,–
B2,125,7530,8.09,102,from ˜2-fold (4Sr5) to ˜5-fold (4Sr6a) increase in kcat/Km,–,9390,11,–,–
B3,–,–,–,312,–,from ˜2-fold (4Sr6b) to ˜8-fold (4Sr5),4140,0.91,–,–
B15,–,–,–,–,–,–,–,–,lowering specificity for LPESG (SEQ ID NO: 3) over LPETG (SEQ ID NO: 4) by 14-fold for the V104A mutant,–
B16,–,–,–,–,–,–,–,–,–,Reversion of V182 in eSrtA(4S-9) preserved selectivity but decreased overall activity
B17,–,–,–,–,–,–,–,–,by 75-fold for the T118A mutant,–
B4,–,–,–,156,–,–,4350,18.5,–,–
B10,1560,487,2.22,1410,–,–,517,1.82,–,–
B12,38800,193,1.45,7310,–,–,154,–,–,–
